B1: Fus3 (wild type), in vitro translated, 35S-labelled (enzyme, S. cerevisiae, UniProt P16892 1-353, looked up)
chain: MPKRIVYNISSDFQLKSLLGEGAYGVVCSATHKPTGEIVAIKKIEPFDKPLFALRTLREIKILKHFKHENIITIFNIQRPDSFENFNEVYIIQELMQTDLHRVISTQMLSDDHIQYFIYQTLRAVKVLHGSNVIHRDLKPSNLLINSNCDLKVCDFGLARIIDESAADNSEPTGQQSGMTEYVATRWYRAPEVMLTSAKYSRAMDVWSCGCILAELFLRRPIFPGRDYRHQLLLIFGIIGTPHSDNDLRCIESPRAREYIKSLPMYPAAPLEKMFPRVNPKGIDLLQRMLVFDPAKRITAKEALEHPYLQTYHDPNDEPEGEPIPPSFFEFDHYKEALTTKDLKKLIWNEIFS
modifications: [35S]methionine label
B2: GST-Ste5_(241-336) (domain or fragment, S. cerevisiae, UniProt P32917 241-336, looked up)
chain: PENDELKDILISDFLIHKIPDSELSITPQSRFPPYSPLLPPFGLSYTPVERQTIYSQAPSLNPNLILAAPPKERNQIPQKKSNYTFLHSPLGHRRI
B3: GST-Dig2_(98-114) (domain or fragment, S. cerevisiae, UniProt Q03373 98-114, looked up)
chain: SLKRKRVPPALNFSDIQ
B4: GST-Ste7_(1-98) (domain or fragment, S. cerevisiae, UniProt P06784 1-98, looked up)
chain: MFQRKTLQRRNLKGLNLNLHPDVGNNGQLQEKTETHQGQSRIEGHVMSNINAIQNNSNLFLRRGIKKKLTLDAFGDDQAISKPNTVVIQQPQNEPVLV
B5: Fus3-7m2 (D317N), in vitro translated, 35S-labelled (enzyme, S. cerevisiae, UniProt P16892 1-353, looked up)
chain: B1 chain with D317N
modifications: [35S]methionine label
B6: full-length Dig2-GAD (natural protein, S. cerevisiae, UniProt Q03373 1-323, looked up)
chain: MNKEEQEDPQQEQISTVQENDPRNLQQLGMLLVSPGLDEDRLSEKMISKIKKSRDIEKNQKLLISRLSQKEEDHSGKPPTITTSPAEKTVPFKSLNHSLKRKRVPPALNFSDIQASSHLHGSKSAPPNITRFPQHKNSLRVRYMGRMAPTNQDYHPSVANSYMTATYPYPYTGLPPVPCYPYSSTPTQTHAYEGYYSPMYPGPLYNNGIIPADYHAKRKKLAGRSPHLEDLTSRKRTFVSKHHNGDPIISKTDEDIECSVTKNSLSEGASLNDDADDDNDKERIIIGEISLYDDVFKFEVRDDKNDYMKACETIWTEWHNLKK
B7: Kss1 (wild type), in vitro translated, 35S-labelled (enzyme, S. cerevisiae, UniProt P14681 1-368, looked up)
chain: MARTITFDIPSQYKLVDLIGEGAYGTVCSAIHKPSGIKVAIKKIQPFSKKLFVTRTIREIKLLRYFHEHENIISILDKVRPVSIDKLNAVYLVEELMETDLQKVINNQNSGFSTLSDDHVQYFTYQILRALKSIHSAQVIHRDIKPSNLLLNSNCDLKVCDFGLARCLASSSDSRETLVGFMTEYVATRWYRAPEIMLTFQEYTTAMDIWSCGCILAEMVSGKPLFPGRDYHHQLWLILEVLGTPSFEDFNQIKSKRAKEYIANLPMRPPLPWETVWSKTDLNPDMIDLLDKMLQFNPDKRISAAEALRHPYLAMYHDPSDEPEYPPLNLDDEFWKLDNKIMRPEEEEEVPIEMLKDMLYDELMKTME
modifications: [35S]methionine label
B8: full-length Dig1-GAD (natural protein, S. cerevisiae, UniProt Q03063 1-452, looked up)
chain: MAVSARLRTTAEDTSIAKSTQDPIGDTEISVANAKGSSDSNIKNSPGGNSVGQESELEHVPEEDDSGDKEADHEDSETATAKKRKAQPLKNPKKSLKRGRVPAPLNLSDSNTNTHGGNIKDGNLASSNSAHFPPVANQNVKSAPAQVTQHSKFQPRVQYLGKASSRQSIQVNNSSNSYGKPHMPSAGIMSAMNPYMPMNRYIMSPYYNPYGIPPPHMLNKPIMTPYVSYPYPMGPRTSIPYAMQGGNARPYEENEYSASNYRNKRVNDSYDSPLSGTASTGKTRRSEEGSRNSSVGSSANAGPTQQRADLRPADMIPAEEYHFERDALLSANTKARSASTSTSTSTSTNRDRSSWHEAEPNKDEEEGTDLAIEDGAVPTPTFTTFQRTSQPQQQSPSLLQGEIRLSSHIFAFEFPLSSSNVDKKMFMSICNKVWNESKELTKKSSSHHRTGK
B9: GST-Ste12_(298-473) (domain or fragment, S. cerevisiae, UniProt P13574 298-473, looked up)
chain: AKGRDEEDFPLDYFPVSVEYPTEENAFDPFPPQAFTPAAPSMPISYDNVNERDSMPVNSLLNRYPYQLSVAPTFPVPPSSSRQHFMTNRDFYSSNNNKEKLVSPSDPTSYMKYDEPVMDFDESRPNENCTNAKSHNSGQQTKQHQLYSNNFQQSYPNGMVPGYYPKMPYNPMGGDP
B10: Ste12-GAD (Ste12 fused to the Gal4 transcriptional activation domain) (natural protein, S. cerevisiae, UniProt P13574 1-688, looked up)
chain: MKVQITNSRTEEILKVQANNENDEVSKATPGEVEESLRLIGDLKFFLATAPVNWQENQIIRRYYLNSGQGFVSCVFWNNLYYITGTDIVKCCLYRMQKFGREVVQKKKFEEGIFSDLRNLKCGIDATLEQPKSEFLSFLFRNMCLKTQKKQKVFFWFSVAHDKLFADALERDLKRESLNQPSTTKPVNEPALSFSYDSSSDKPLYDQLLQHLDSRRPSSTTKSDNSPPKLESENFKDNELVTVTNQPLLGVGLMDDDAPESPSQINDFIPQKLIIEPNTLELNGLTEETPHDLPKNTAKGRDEEDFPLDYFPVSVEYPTEENAFDPFPPQAFTPAAPSMPISYDNVNERDSMPVNSLLNRYPYQLSVAPTFPVPPSSSRQHFMTNRDFYSSNNNKEKLVSPSDPTSYMKYDEPVMDFDESRPNENCTNAKSHNSGQQTKQHQLYSNNFQQSYPNGMVPGYYPKMPYNPMGGDPLLDQAFYGADDFFFPPEGCDNNMLYPQTATSWNVLPPQAMQPAPTYVGRPYTPNYRSTPGSAMFPYMQSSNSMQWNTAVSPYSSRAPSTTAKNYPPSTFYSQNINQYPRRRTVGMKSSQGNVPTGNKQSVGKSAKISKPLHIKTSAYQKQYKINLETKARPSAGDEDSAHPDKNKEISMPTPDSNTLVVQSEEGGAHSLEVDTNRRSDKNLPDAT

One test concerns the target T1, GST-Dig1_(93-111) (S. cerevisiae, UniProt Q03063 93-111).
T1 chain (looked up): KKSLKRGRVPAPLNLSDSN
In words: pull-down.

The test “GST-Dig2_(98-114)” has as its target B3. The test can be described thus: pull-down.
The test “GST-Ste7_(1-98)” addresses B4. The test can be described thus: pull-down.
The test “GST-Ste5_(241-336)” deals with B2. In words: pull-down.
The target in a further test is T2, GST-Dig1_(213-452) (S. cerevisiae, UniProt Q03063 213-452).
T2 sequence (looked up): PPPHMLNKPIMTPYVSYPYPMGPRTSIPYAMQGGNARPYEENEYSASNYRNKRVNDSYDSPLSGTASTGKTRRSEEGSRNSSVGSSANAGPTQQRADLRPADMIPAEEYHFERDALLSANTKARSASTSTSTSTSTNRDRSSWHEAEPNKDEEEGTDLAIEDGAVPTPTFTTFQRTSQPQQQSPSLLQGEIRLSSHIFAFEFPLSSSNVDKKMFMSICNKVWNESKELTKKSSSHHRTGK
The test can be described thus: pull-down.

The target in test [1] is B1. In words: pull-down.
Test [2] addresses B7. In words: pull-down.
The target of test [3] is B1. The test can be described thus: pull-down. The source holds these as a separate data set.
Test [4] deals with T3, Kss1-GBD (wild-type Kss1 fused to the Gal4 DNA-binding domain) (S. cerevisiae, UniProt P14681 1-368).
T3 sequence (looked up): B7 chain
In words: two-hybrid.

For test [5], the target named is B7. The test can be described thus: pull-down. This is another data set of the same source.

Positions count from the first letter of the chain named. In names and notes the source's numbering stands. Like-named read-outs stand apart in the source and are kept apart here. Bounds are passed on as bounds.

In the case of B1, the “fold higher affinity than Kss1 for the same D-site” value with GST-Dig1_(93-111) and with GST-Dig2_(98-114) was about 17 fold each time. Further, the “fold higher affinity than for the Dig1 D-site” value with GST-Dig2_(98-114) is about 3 fold. In addition, the “percent of input bound” value with GST-Ste7_(1-98) was 14 % of input; in the test with GST-Ste5_(241-336), 12.6 % of input; with GST-Dig1_(213-452) it was 0.6 % of input.
In the case of B2, the Kd in test [1] was about 1 µM; in [2], about 6.5 µM.
The molecule B3 had a dissociation constant Kd in test [3] of about 1 µM.
For B4, the Kd in test [1] and in test [2] was about 0.1 µM each time.
In the case of B5, the “percent of wild-type binding” value in the test with GST-Ste7_(1-98) is < 1 % of wild-type.
As for B6, the “fold above background (two-hybrid reporter)” value (from here on “fold above background”) in test [4] came to 23 fold.
With B7, in the test with GST-Dig2_(98-114), the “fold higher affinity than for the Dig1 D-site” value is about 3 fold. Further, the entries for the “percent of input bound” value with GST-Ste7_(1-98), with GST-Ste5_(241-336) and with GST-Dig1_(213-452) were 9 % of input, 3.7 % of input and 1.3 % of input, respectively.
For the molecule B8, the “fold above background” value in [4] is 3 fold.
Regarding B9, in [5], the Kd is about 2 µM.
Take B10: in test [4], the “fold above background” value stood at 4 fold.

Broadly, the Kd is a measure of binding affinity in units of concentration. A low value points to tighter binding.

The record behind these values is publication PMC2172336 (The Journal of Cell Biology, 2004).
